Test results published in the supplement of paper PMC10567573.

B1: PSD2 (parent)
chain: LTHFSRRYCQCNPDDSTSEDGIHT
B2: ANKRD17 (parent)
chain: EVLRRLTSSVSCALDEAAAALTRM

Variants of: B1
Assay: protein stability index of a GFP-peptide fusion (GPS, HEK-293T) (PSI 1-6); higher = more stable
Conditions: c terminus: a fixed tail appended
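Note: lentivirally expressed fusions sorted by FACS into six bins by GFP to DsRed ratio, PSI derived from sequencing read proportions per bin multiplied by bin number.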

Protein stability index of substitutions, site by site:
F4: D 3.57, A 4.42, C 3.38
L1: E 3.17, M 3.16, V 3.77, A 3.56, F 2.72, P 3.96, Q 3.53, S 3.7, N 3.75, K 3.49, H 3.66, D 4.21, Y 1.62, W 3.36, C 3.89, I 3.69, G 3.79, T 3.75
H3: T 3.28, F 2.16, S 3.29, N 3.55, R 3.62, Y 3.13, K 3.52, C 2.73, W 2.16, Q 3.47, A 3.54, M 2.62, E 3.61, V 3.69, D 4.38, L 2.96, P 3.03, I 2.83, G 2.92
T2: L 2.41, W 2.28, V 2.24, M 2.86, R 2.63, I 3.01, F 2.63, D 4.29, C 2.51, K 2.47, E 4.41, Q 2.87, H 3.9, N 3.74, P 3.26, S 3.23, Y 2.79, G 3.67, A 3.18

Variants of: B2
Assay: as above
Conditions: c terminus: a fixed tail appended

Protein stability index, by site and new letter:
A17: M 1.85, V 2.32, S 2.16, F 2.03, C 2.59, T 2.13, D 1.46, L 2.34, I 2.26, Y 2.49, E 2.24
M24: C 2.33, N 1.65, T 3.53, H 2.49, Y 1.43, Q 2.2, D 1.43, W 3.27, R 2.72, L 2.81, V 1.07, S 2.42, I 2.08, F 2.44
R23: D 2.8, W 3.5, I 1.92, G 2.35, V 1.02, H 1.95, S 1.93, A 2.91, F 4.05, E 2.64, P 2.15, K 1.21, Q 1.74, N 1.35, M 1.59
S11: F 1.12, I 2.1, Y 2.26, M 2.22, V 1.35, P 2.79, A 1.43, T 2.42, N 2.65, E 1.92, G 1.03, D 2.18, Q 1.18
A20: M 2.28, V 1.91, Y 3.13, N 3.01, C 2.73, R 2.64, H 1.52, F 1.65, L 1.45, Q 3.08, K 2.69, I 2.52, D 1.65, W 2.48, E 3.31
A19: K 2.6, E 2.12, S 2.16, F 3.41, T 2.29, H 1.78, P 2.25, G 2.3, V 2.99, D 1.83, Y 2.92, I 1.88, L 2.35, N 2.55
D15: R 1.85, Q 1.87, E 2.2, G 1.26, N 3.18, C 1.99, A 1.35, H 1.97, P 2.37, M 3.36
L6: W 2, P 2.38, T 2.32, Q 2.95, S 1.73, N 2.07, Y 2.28
S8: F 4.21, C 2.81, W 3.21, D 2.25, P 1.73, T 3, G 1.52, Q 1.41, N 2.49, V 2.27, M 2.13, A 1.68, R 2.21, H 2.09, K 2.39, Y 1.99
T22: P 2.33, F 2.21, R 1.31, I 2.36, D 2.22, K 1.86, Q 3, M 2.39, C 2.1, E 2.06, A 1.94, N 1.93, V 1.24, W 1.46, Y 1.85, H 3.03
E16: Y 2.43, Q 2.56, L 3.18, N 3, A 2.32, C 2.46, R 2.09, S 2.96, V 1.6, T 1.88, H 1.8, D 1.72, K 1.54, F 3.12, I 1.97
A13: K 2.55, L 1.38, F 2.2, H 2.42, P 1.37, S 1.34, E 2.34, Q 1.59, M 1.6, V 1.16, N 1.69, Y 1.66, I 2.26, T 2.38, C 2.58, W 2.07, R 2.06
L21: R 5.02, V 2.04, W 1.6, C 1.18, H 1.89, N 3.47, D 1.53, F 1.65, I 1.93, M 1.5
C12: Y 1.65, K 2.73, H 4.25, T 2.97, N 3.93, E 3, A 3.05, F 1.78, G 3.18, S 2.69, I 1.71, L 2.75, W 2.27, V 2.48, Q 2.41, M 1.74, P 1.91
T7: S 2.09, W 1.98, M 2.05, P 2.52, N 1.16, K 3.26, L 2.95, D 1.81, H 1.17, F 1.66, I 2.06, A 2.96, V 3, R 3, C 2.05, Q 2.6, Y 2.2, E 2.81, G 2.27
S9: N 1.81, G 1.64, F 2.38, R 2.69, C 1.87, I 1.97, Y 1.58, D 1.65, M 2.49, E 1.47, P 1.94, T 1.66, W 2.63, Q 2.21, A 2.11
V10: Y 1.65, T 1.3, D 3.61, G 1.1, I 2.13, E 1.81, H 1.74, P 1.29, R 1.07, A 3.08, S 1.83, K 2.15, L 2.21, C 1.98, W 1.4, N 1.94
A18: F 1.94, Q 2.4, Y 1.69, V 1.8, M 2.25, T 2.27, D 1.89, P 2.72, L 1.68, I 2.33, H 1.68, G 1.85, R 2.43, W 1.64, E 1.24, K 2.92, N 1.8
L14: T 2.77, C 2.2, H 2.13, Y 2.27, N 2.11, M 2.81, Q 2.48, F 1.23, S 2.72, I 2.22, P 1.93, E 3.61, A 2.23, W 1.81, V 1.77, K 1.79, D 1.94, R 1.57
